From the supplement of paper PMC7877785
± gives the uncertainty stated by the source.

Test: self-splicing fitness, log relative to wild type (ln ratio); higher = more splicing; Tetrahymena group I intron in knt gene, E. coli kanamycin selection, DiMSum; sequences stand for … in CUCUCU…GGAGGGAAAAGUUAUCAGGCAUGCACCUGGUAGCUAGUCUUUAAACCAAUAGAUUGCAUCGGUUUAAAAGGCAAGACCGUCAAAUUGCGGGAAAGGGGUCAACAGCCGUUCAGUACCAAGUCUCAGGGGAAACUUUGAGAUGGCCUUGCAAAGGGUAUGGUAAUAAGCUGACGGACAUGGUCCUAACCACGCAGCCAAGUCCUAAGUCAACAGAUCUUCUGUUGAUAUGGAUGCAGUUCACAGACUAAAUGUCGGUCGGGGAAGAUGUAUUCUUCUCAUAAGAUAUAGUCGGACCUCUCCUUAAUGGGAGCUAGCGGAUGAAGUGAUGCAACACUGGAGCCGCUGGGAACUAAUUUGUAUGCGAAAGUAUAUUGAUUAGUUUUGGAGUACUCGUGGUCG
Procedure, shortened: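 DiMSum derived fitness as the error-weighted combination of fold changes across replicates, kanamycin versus no kanamycin, normalised to wild type. E. coli BL21(DE3) held the library, which randomised all eight P1ex-region intron nucleotides within the knt kanamycin-resistance gene on pET-22b(+). Six replicate transformations grew overnight at 37°C or 30°C on LB agar with or without 25 μg/mL kanamycin, also containing 100 μg/mL carbenicillin, 50 μM IPTG and 0.2% rhamnose, and pooled colonies were amplicon-sequenced on an Illumina HiSeq 2500.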

| Sequence | self-splicing fitness (ln) (30 °C) | self-splicing fitness (ln) (37 °C) |
| --- | --- | --- |
| CGCUAGCAAUAUUACGCAAU | -2.44 ± 0.3 | -2.09 ± 0.36 |
| CGCUAGCAAUAUUACGCAGC |  | -2.8 ± 0.33 |
| CGCUAGCAAUAUUACGCCGA | -0.916 ± 0.21 | -0.258 ± 0.15 |
| CGCUAGCAAUAUUACGCUUA | -3.03 ± 0.33 | -2.75 ± 0.27 |
| CGCUAGCAAUAUUACGGAUC | -3.32 ± 0.24 | -1.14 ± 0.15 |
| CGCUAGCAAUAUUACGGGAA | -3.1 ± 0.22 | -2.76 ± 0.26 |
| CGCUAGCAAUAUUACGGGCA | -0.187 ± 0.07 | -0.269 ± 0.079 |
| CGCUAGCAAUAUUACGGUAA | -1.73 ± 0.1 | -2.12 ± 0.11 |
| CGCUAGCAAUAUUACGGUAC | -3.35 ± 0.23 | -1.95 ± 0.22 |
| CGCUAGCAAUAUUACGGUCA | -0.0527 ± 0.076 | 0.137 ± 0.079 |
| CGCUAGCAAUAUUACGGUUA | -2.22 ± 0.23 | -1.82 ± 0.2 |
| CGCUAGCAAUAUUACGUAAG | -0.553 ± 0.073 | -0.0723 ± 0.1 |
| CGCUAGCAAUAUUACGUACA | -2.62 ± 0.14 | -1.35 ± 0.15 |
| CGCUAGCAAUAUUACGUAUU | -3.85 ± 0.21 | -1.9 ± 0.18 |
| CGCUAGCAAUAUUACGUCGG | -1.6 ± 0.075 | -0.631 ± 0.12 |
| CGCUAGCAAUAUUACGUGAC |  | -2.52 ± 0.3 |
| CGCUAGCAAUAUUACGUGCA | -0.672 ± 0.095 | 0.116 ± 0.11 |
| CGCUAGCAAUAUUACGUGCG | -3.74 ± 0.26 | -2.4 ± 0.22 |
| CGCUAGCAAUAUUACGUGUU | -4.69 ± 0.29 | -3.17 ± 0.26 |
| CGCUAGCAAUAUUACGUUCG | -1.46 ± 0.067 | -0.781 ± 0.089 |

| Sequence | self-splicing fitness (ln) (30 °C) | self-splicing fitness (ln) (37 °C) |
| --- | --- | --- |
| CGCUAGCAAUAUUACGUUUG | -2.31 ± 0.085 | -0.505 ± 0.094 |
| CGGAAGCAAUAUUACGAGCU | -2.93 ± 0.21 | -3.07 ± 0.27 |
| CGGAAGCAAUAUUACGAGUG | -0.361 ± 0.05 | -0.0668 ± 0.075 |
| CGGAAGCAAUAUUACGCAUA |  | -1.12 ± 0.27 |
| CGGAAGCAAUAUUACGCCUC | -3.04 ± 0.27 | -2.89 ± 0.4 |
| CGGAAGCAAUAUUACGCUGU | -3.49 ± 0.15 | -1.3 ± 0.08 |
| CGGAAGCAAUAUUACGCUUA |  | -2.15 ± 0.32 |
| CGGAAGCAAUAUUACGGAAA | -1.12 ± 0.21 | -2.23 ± 0.29 |
| CGGAAGCAAUAUUACGGAGG | -1.25 ± 0.15 | -1.01 ± 0.21 |
| CGGAAGCAAUAUUACGGGAC | -3.5 ± 0.3 |  |
| CGGAAGCAAUAUUACGGGCA | -1.52 ± 0.16 | -1.6 ± 0.19 |
| CGGAAGCAAUAUUACGGGUG | -0.485 ± 0.09 | 0.544 ± 0.086 |
| CGGAAGCAAUAUUACGGGUU | -4.48 ± 0.26 | -2.77 ± 0.2 |
| CGGAAGCAAUAUUACGGUGG | -0.759 ± 0.099 | -0.586 ± 0.1 |
| CGGAAGCAAUAUUACGUAAA | -2.94 ± 0.21 | -1.79 ± 0.23 |
| CGGAAGCAAUAUUACGUCCU | 0.17 ± 0.12 | 0.626 ± 0.12 |
| CGGAAGCAAUAUUACGUCGA | -2.59 ± 0.19 | -1.67 ± 0.18 |
| CGGAAGCAAUAUUACGUGGC | -3.67 ± 0.18 | -2.54 ± 0.23 |
| CGGAAGCAAUAUUACGUGGU | -3.62 ± 0.21 | -1.94 ± 0.2 |
